{"source": "patent US20230406907A1", "binders": {"B1": {"name": "antibody S1D2 (fully human recombinant monoclonal IgG1, no Fc mutation) (antibody, V domains shown)", "VH": "EVQLVESGGGLIQPGGSLRLSCAASGFTVSSNYMSWVRQAPGKGLEWVSIIYPGGSTNYADSVKGRFTISRDNSRNTLYLQMNSLRAEDTAVYYCARELGYYGMDVWGQGTTVTVSS", "VL": "DIQMTQSPSSVSASVGDRVTITCRASQGISTWLVWYQQKPGKAPNLLIYGASSLQSGVPSRFSGSGSGTDFTLTISSLQPEDFATYYCQQANSFPYTFGQGTKLEIK"}}, "key": {"[1]": {"molecular_target": "T1, SARS-CoV-2 spike protein RBD (amino acids 319-537 of SEQ ID NO:1, i.e. SEQ ID NO:5) with a carboxy t (SARS-CoV-2), P0DTC2", "conditions": "remark: other sources report otherwise"}, "[2]": {"molecular_target": "T1, SARS-CoV-2 spike protein RBD (amino …)", "conditions": "remark: other sources report otherwise", "remark": "listed apart in the source"}}, "note": "Where two headings read alike, the source gives them in different places."}
{"binder": "B1", "values": [{"measurement": "Kd", "setting": "[1]", "value": 46, "unit": "nM"}, {"measurement": "Kd", "setting": "[2]", "value": 46.2, "unit": "nM"}, {"measurement": "koff", "setting": "[2]", "value": 0.027, "unit": "s⁻¹"}, {"measurement": "kon", "setting": "[2]", "value": 584000, "unit": "M⁻¹ s⁻¹"}]}
